Experimental data as given in US20140271457A1 (AbbVie / Abbott, published 2014).

B1: DVD3099 (bispecific antibody, human IgG1, kappa)
heavy: not shown
light: DVVMTQSPLSLPVTLGQPASISCRSSQSLVHSHGNTYLHWYQQRPGQSPRLLIYTVSNRFSGVPDRFSGSGSGTDFTLKISRVEAEDVGVYYCSQSTHVPYTFGGGTKVEIKRTVAAPDIQMTQSPSSLSASVGDRVTITCKASQLVSSAVAWYQQKPGKAPKLLIYWASTLHTGVPSRFSGSGSGTDFTLTISSLQPEDFATYYCQQHYRTPFTFGQGTKLEIKRTVAAPSVFIFPPSDEQLKSGTASVVCLLNNFYPREAKVQWKVDNALQSGNSQESVTEQDSKDSTYSLSSTLTLSKADYEKHKVYACEVTHQGLSSPVTKSFNRGEC
B2: DVD3101 (bispecific antibody, human IgG1, kappa)
heavy: not shown
light: DVVMTQSPLSLPVTLGQPASISCRSSQSLVHSHGNTYLHWYQQRPGQSPRLLIYTVSNRFSGVPDRFSGSGSGTDFTLKISRVEAEDVGVYYCSQSTHVPYTFGGGTKVEIKRTVAAPSVFIFPPDIQMTQSPSSLSASVGDRVTITCKASQLVSSAVAWYQQKPGKAPKLLIYWASTLHTGVPSRFSGSGSGTDFTLTISSLQPEDFATYYCQQHYRTPFTFGQGTKLEIKRTVAAPSVFIFPPSDEQLKSGTASVVCLLNNFYPREAKVQWKVDNALQSGNSQESVTEQDSKDSTYSLSSTLTLSKADYEKHKVYACEVTHQGLSSPVTKSFNRGEC
B3: DVD3102 (bispecific antibody, human IgG1, kappa)
heavy: not shown
light: DVVMTQSPLSLPVTLGQPASISCRSSQSLVHSHGNTYLHWYQQRPGQSPRLLIYTVSNRFSGVPDRFSGSGSGTDFTLKISRVEAEDVGVYYCSQSTHVPYTFGGGTKVEIKRTVAAPDIQMTQSPSSLSASVGDRVTITCKASQLVSSAVAWYQQKPGKAPKLLIYWASTLHTGVPSRFSGSGSGTDFTLTISSLQPEDFATYYCQQHYRTPFTFGQGTKLEIKRTVAAPSVFIFPPSDEQLKSGTASVVCLLNNFYPREAKVQWKVDNALQSGNSQESVTEQDSKDSTYSLSSTLTLSKADYEKHKVYACEVTHQGLSSPVTKSFNRGEC
B4: DVD3103 (bispecific antibody, human IgG1, kappa)
heavy: not shown
light: DIQMTQSPSSLSASVGDRVTITCRASQDISQYLNWYQQKPGKAPKLLIYYTSRLQSGVPSRFSGSGSGTDFTLTISSLQPEDFATYFCQQGNTWPPTFGQGTKLEIKRGGSGGGGSGDIQMTQSPSSLSASVGDRVTITCRASQLVSSAVAWYQQKPGKAPKLLIYWASARHTGVPSRFSGSGSGTDFTLTISSLQPEDFATYYCQQHYKTPFTFGQGTKLEIKRTVAAPSVFIFPPSDEQLKSGTASVVCLLNNFYPREAKVQWKVDNALQSGNSQESVTEQDSKDSTYSLSSTLTLSKADYEKHKVYACEVTHQGLSSPVTKSFNRGEC
B5: DVD3104 (bispecific antibody, human IgG1, kappa)
heavy: not shown
light: DIQMTQSPSSLSASVGDRVTITCRASQDISQYLNWYQQKPGKAPKLLIYYTSRLQSGVPSRFSGSGSGTDFTLTISSLQPEDFATYFCQQGNTWPPTFGQGTKLEIKRTVAAPDIQMTQSPSSLSASVGDRVTITCRASQLVSSAVAWYQQKPGKAPKLLIYWASARHTGVPSRFSGSGSGTDFTLTISSLQPEDFATYYCQQHYKTPFTFGQGTKLEIKRTVAAPSVFIFPPSDEQLKSGTASVVCLLNNFYPREAKVQWKVDNALQSGNSQESVTEQDSKDSTYSLSSTLTLSKADYEKHKVYACEVTHQGLSSPVTKSFNRGEC
B6: DVD3106 (bispecific antibody)
heavy: not shown
light: DIQMTQSPSSLSASVGDRVTITCRASQDISQYLNWYQQKPGKAPKLLIYYTSRLQSGVPSRFSGSGSGTDFTLTISSLQPEDFATYFCQQGNTWPPTFGQGTKLEIKRTVAAPSVFIFPPDVVMTQSPLSLPVTLGQPASISCRSSQSLVHSHGNTYLHWYQQRPGQSPRLLIYTVSNRFSGVPDRFSGSGSGTDFTLKISRVEAEDVGVYYCSQSTHVPYTFGGGTKVEIKRTVAAPSVFIFPPSDEQLKSGTASVVCLLNNFYPREAKVQWKVDNALQSGNSQESVTEQDSKDSTYSLSSTLTLSKADYEKHKVYACEVTHQGLSSPVTKSFNRGEC
B7: DVD3116 (bispecific antibody)
heavy: not shown
light: DIQMTQSPSSLSASVGDRVTITCRASQDIENYLNWYQQKPGKAPKLLIYYTSRLQSGVPSRFSGSGSGTDFTLTISSLQPEDFATYFCQQGNTQPPTFGQGTKLEIKRTVAAPSVFIFPPDVVMTQSPLSLPVTLGQPASISCRSSQSLVHSHGNTYLHWYQQRPGQSPRLLIYTVSNRFSGVPDRFSGSGSGTDFTLKISRVEAEDVGVYYCSQSTHVPYTFGGGTKVEIKRTVAAPSVFIFPPSDEQLKSGTASVVCLLNNFYPREAKVQWKVDNALQSGNSQESVTEQDSKDSTYSLSSTLTLSKADYEKHKVYACEVTHQGLSSPVTKSFNRGEC
B8: DVD3107 (bispecific antibody)
heavy: not shown
light: DIQMTQSPSSLSASVGDRVTITCRASQDISQYLNWYQQKPGKAPKLLIYYTSRLQSGVPSRFSGSGSGTDFTLTISSLQPEDFATYFCQQGNTWPPTFGQGTKLEIKRTVAAPDVVMTQSPLSLPVTLGQPASISCRSSQSLVHSHGNTYLHWYQQRPGQSPRLLIYTVSNRFSGVPDRFSGSGSGTDFTLKISRVEAEDVGVYYCSQSTHVPYTFGGGTKVEIKRTVAAPSVFIFPPSDEQLKSGTASVVCLLNNFYPREAKVQWKVDNALQSGNSQESVTEQDSKDSTYSLSSTLTLSKADYEKHKVYACEVTHQGLSSPVTKSFNRGEC
B9: DVD3109 (bispecific antibody, human IgG1, kappa)
heavy: not shown
light: DVVMTQSPLSLPVTLGQPASISCRSSQSLVHSHGNTYLHWYQQRPGQSPRLLIYTVSNRFSGVPDRFSGSGSGTDFTLKISRVEAEDVGVYYCSQSTHVPYTFGGGTKVEIKRTVAAPDIQMTQSPSSLSASVGDRVTITCRASQDISQYLNWYQQKPGKAPKLLIYYTSRLQSGVPSRFSGSGSGTDFTLTISSLQPEDFATYFCQQGNTWPPTFGQGTKLEIKRTVAAPSVFIFPPSDEQLKSGTASVVCLLNNFYPREAKVQWKVDNALQSGNSQESVTEQDSKDSTYSLSSTLTLSKADYEKHKVYACEVTHQGLSSPVTKSFNRGEC
B10: DVD3111 (bispecific antibody, human IgG1, kappa)
heavy: not shown
light: DVVMTQSPLSLPVTLGQPASISCRSSQSLVHSHGNTYLHWYQQRPGQSPRLLIYTVSNRFSGVPDRFSGSGSGTDFTLKISRVEAEDVGVYYCSQSTHVPYTFGGGTKVEIKRTVAAPSVFIFPPDIQMTQSPSSLSASVGDRVTITCRASQDISQYLNWYQQKPGKAPKLLIYYTSRLQSGVPSRFSGSGSGTDFTLTISSLQPEDFATYFCQQGNTWPPTFGQGTKLEIKRTVAAPSVFIFPPSDEQLKSGTASVVCLLNNFYPREAKVQWKVDNALQSGNSQESVTEQDSKDSTYSLSSTLTLSKADYEKHKVYACEVTHQGLSSPVTKSFNRGEC
B11: DVD3112 (bispecific antibody, human IgG1, kappa)
heavy: not shown
light: DVVMTQSPLSLPVTLGQPASISCRSSQSLVHSHGNTYLHWYQQRPGQSPRLLIYTVSNRFSGVPDRFSGSGSGTDFTLKISRVEAEDVGVYYCSQSTHVPYTFGGGTKVEIKRTVAAPDIQMTQSPSSLSASVGDRVTITCRASQDISQYLNWYQQKPGKAPKLLIYYTSRLQSGVPSRFSGSGSGTDFTLTISSLQPEDFATYFCQQGNTWPPTFGQGTKLEIKRTVAAPSVFIFPPSDEQLKSGTASVVCLLNNFYPREAKVQWKVDNALQSGNSQESVTEQDSKDSTYSLSSTLTLSKADYEKHKVYACEVTHQGLSSPVTKSFNRGEC
B12: DVD3113 (bispecific antibody)
heavy: not shown
light: DIQMTQSPSSLSASVGDRVTITCRASQDIENYLNWYQQKPGKAPKLLIYYTSRLQSGVPSRFSGSGSGTDFTLTISSLQPEDFATYFCQQGNTQPPTFGQGTKLEIKRGGSGGGGSGDVVMTQSPLSLPVTLGQPASISCRSSQSLVHSHGNTYLHWYQQRPGQSPRLLIYTVSNRFSGVPDRFSGSGSGTDFTLKISRVEAEDVGVYYCSQSTHVPYTFGGGTKVEIKRTVAAPSVFIFPPSDEQLKSGTASVVCLLNNFYPREAKVQWKVDNALQSGNSQESVTEQDSKDSTYSLSSTLTLSKADYEKHKVYACEVTHQGLSSPVTKSFNRGEC
B13: DVD3114 (bispecific antibody)
heavy: not shown
light: DIQMTQSPSSLSASVGDRVTITCRASQDIENYLNWYQQKPGKAPKLLIYYTSRLQSGVPSRFSGSGSGTDFTLTISSLQPEDFATYFCQQGNTQPPTFGQGTKLEIKRTVAAPDVVMTQSPLSLPVTLGQPASISCRSSQSLVHSHGNTYLHWYQQRPGQSPRLLIYTVSNRFSGVPDRFSGSGSGTDFTLKISRVEAEDVGVYYCSQSTHVPYTFGGGTKVEIKRTVAAPSVFIFPPSDEQLKSGTASVVCLLNNFYPREAKVQWKVDNALQSGNSQESVTEQDSKDSTYSLSSTLTLSKADYEKHKVYACEVTHQGLSSPVTKSFNRGEC
B14: DVD3117 (bispecific antibody, human IgG1, kappa)
heavy: not shown
light: DIQMTQSPSSLSASVGDRVTITCRASQDIENYLNWYQQKPGKAPKLLIYYTSRLQSGVPSRFSGSGSGTDFTLTISSLQPEDFATYFCQQGNTQPPTFGQGTKLEIKRTVAAPDIQMTQSPSSLSASVGDRVTITCRASQLVSSAVAWYQQKPGKAPKLLIYWASARHTGVPSRFSGSGSGTDFTLTISSLQPEDFATYYCQQHYKTPFTFGQGTKLEIKRTVAAPSVFIFPPSDEQLKSGTASVVCLLNNFYPREAKVQWKVDNALQSGNSQESVTEQDSKDSTYSLSSTLTLSKADYEKHKVYACEVTHQGLSSPVTKSFNRGEC
B15: DVD3118 (bispecific antibody, human IgG1, kappa)
heavy: not shown
light: DVVMTQSPLSLPVTLGQPASISCRSSQSLVHSHGNTYLHWYQQRPGQSPRLLIYTVSNRFSGVPDRFSGSGSGTDFTLKISRVEAEDVGVYYCSQSTHVPYTFGGGTKVEIKRGGSGGGGSGDIQMTQSPSSLSASVGDRVTITCRASQDIENYLNWYQQKPGKAPKLLIYYTSRLQSGVPSRFSGSGSGTDFTLTISSLQPEDFATYFCQQGNTQPPTFGQGTKLEIKRTVAAPSVFIFPPSDEQLKSGTASVVCLLNNFYPREAKVQWKVDNALQSGNSQESVTEQDSKDSTYSLSSTLTLSKADYEKHKVYACEVTHQGLSSPVTKSFNRGEC
B16: DVD3119 (bispecific antibody, human IgG1, kappa)
heavy: not shown
light: DVVMTQSPLSLPVTLGQPASISCRSSQSLVHSHGNTYLHWYQQRPGQSPRLLIYTVSNRFSGVPDRFSGSGSGTDFTLKISRVEAEDVGVYYCSQSTHVPYTFGGGTKVEIKRTVAAPDIQMTQSPSSLSASVGDRVTITCRASQDIENYLNWYQQKPGKAPKLLIYYTSRLQSGVPSRFSGSGSGTDFTLTISSLQPEDFATYFCQQGNTQPPTFGQGTKLEIKRTVAAPSVFIFPPSDEQLKSGTASVVCLLNNFYPREAKVQWKVDNALQSGNSQESVTEQDSKDSTYSLSSTLTLSKADYEKHKVYACEVTHQGLSSPVTKSFNRGEC

Target: Recombinant Human IL-13 (human, UniProt P35225 35-146, limits assumed)
Experiment: cell-based or functional assay

Recombinant Human IL-13, sequence (P35225 35-146 limits assumed): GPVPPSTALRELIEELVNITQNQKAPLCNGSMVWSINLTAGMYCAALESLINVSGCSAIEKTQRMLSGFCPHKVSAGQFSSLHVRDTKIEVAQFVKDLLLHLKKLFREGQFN

Row | Binder | IL-13 Neutralization Assay IC50
1 | B1 | 0.014 nM
2 | B2 | 0.037 nM
3 | B3 | 0.025 nM
4 | B4 | 0.042 nM
5 | B5 | 1.05 nM
6 | B6 | 0.074 nM
7 | B7 | 0.081 nM
8 | B8 | 0.029 nM
9 | B9 | 0.044 nM
10 | B10 | 0.018 nM
11 | B11 | 0.017 nM
12 | B12 | 0.065 nM
13 | B13 | 0.781 nM
14 | B14 | 0.015 nM
15 | B15 | 0.013 nM
16 | B16 | 0.051 nM
